Data on 139 substances can be found in the supplement of paper PMC12042874.

± gives the uncertainty stated by the source.

The nature of this data set: amyloid nucleation score (Sup35N fusion, yeast selection) (log enrichment); library NNK1; higher = more nucleation; inactive = no reads after selection. In a few lines:
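Three technical output replicates were used for random libraries. Psi-negative yeast expressing peptides of 20 random codons fused to Sup35N were induced with 100 μM copper sulfate for 24 hours and grown 7 days at 30°C on medium lacking adenine and uracil, and input and output plasmid inserts were Illumina-sequenced, excluding sequences with under 100 input reads. The nucleation score is the DiMSum log enrichment of output over input reads, centred on the mode score of non-aggregating sequences.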
WSYMVL had an amyloid nucleation score of -0.645 ± 0.81.

With LWLIPRWYDLTEMECFDMYN, the amyloid nucleation score came out at 0.477 ± 0.45.

CSGMMARPWIYLVGVYKISN returned an amyloid nucleation score of 2.26 ± 0.17.

ATGSMGQSSSTGDASKLASF: the amyloid nucleation score came out at 1.3 ± 0.32.

With CPITWNFLCGIVLIEYYRVV, the amyloid nucleation score came out at 7.04 ± 0.087.

As to IWFLHHEVKF, the amyloid nucleation score turned out to be 0.603 ± 0.58.

As for LRGVLMFMQVRDRADRGRSW, the amyloid nucleation score came out at 0.061 ± 0.47.

As to VLIINFLPVWWKTYLSMMIR, the amyloid nucleation score is -0.256 ± 0.45.

LDEVHESSIRSGNY came in with an amyloid nucleation score of 3.12 ± 0.17.

For IIGTPVPYLGVLKTFDIKYF, the amyloid nucleation score was 0.125 ± 0.36.

FVLVMLNMQ came in with an amyloid nucleation score of 4.4 ± 0.093.

As to CASRNCGNYVK, the amyloid nucleation score entry was “inactive”.

Turning to GPLSKGIFDRFMDPHRYFKY, the amyloid nucleation score was -0.024 ± 0.61.

In the case of FVVSDTGKVKWGMAQ, the amyloid nucleation score was found to be 2.68 ± 0.14.

RWEFGLRHGKSVKWSIPSLY displayed an amyloid nucleation score of -0.085 ± 0.95.

On to GDLRSSILRLPTWRLWWITT, for which the amyloid nucleation score came to 0.174 ± 0.29.

NLTTPIWDRSYCSYMNMMNS: the amyloid nucleation score came to 0.369 ± 0.42.

Substance GQKYHINVRERLNNLFGDCV had an amyloid nucleation score of 0.537 ± 0.35.

Regarding SLSMFLLTILTCYDGFIDIW, the amyloid nucleation score is -0.372 ± 0.25.

Regarding THSIFFVQLRFPFMLTTS, the amyloid nucleation score was -0.269 ± 0.78.

For TSGIYRRSDFLERHIS, the amyloid nucleation score worked out at 0.993 ± 0.71.

Take NVYFLPIMA: the amyloid nucleation score was -1.06 ± 0.54.

In the case of VKRLTRAVFCSFKSRVARSS, the amyloid nucleation score came to 0.238 ± 0.58.

VLQDSGIAAYKYSGSCDCSF came in with an amyloid nucleation score of -1.07 ± 0.58.

In the case of IYCYSYYLCSFLCVYDISKG, the amyloid nucleation score is -0.457 ± 0.79.

For the substance FEGLVQL, the amyloid nucleation score entry is “inactive”.

For the substance QIIHGCSAGLQLT, the amyloid nucleation score was determined as 0.809 ± 0.47.

Regarding VLCLWISGLPVLCSVCDPLV, the amyloid nucleation score was determined as 0.1 ± 0.45.

The substance ERMSRLCSQSGARRKCGAGC came in with an amyloid nucleation score of 1.01 ± 0.64.

As for VIGVGKMLGNNHYPLSDQGL, the amyloid nucleation score was -0.05 ± 0.26.

The substance KIRVDRFNIRSCDIGSDLCY displayed an amyloid nucleation score of -1.07 ± 0.43.

For TYHFCLFMSYSGSNRAALCN, the amyloid nucleation score is -0.212 ± 1.

TLNDYYCFMLCGAVNG came in with an amyloid nucleation score of 0.071 ± 0.63.

Consider IIAKNTDKVSCTVRVSFL, for which the amyloid nucleation score is -0.894 ± 1.4.

Regarding MHLVQSCYLVIPRVLDPELV, the amyloid nucleation score was 0.313 ± 1.

In turn, ERHMYMSCWFTNY displayed an amyloid nucleation score of 0.777 ± 0.21.

On to MKIGIGVFRDREGNSGWL, for which the amyloid nucleation score was -0.741 ± 1.4.

Consider RAVGDM, for which the amyloid nucleation score is -0.241 ± 0.52.

Turning to CGYCD, the amyloid nucleation score is -1.69 ± 2.4.

Turning to SMMYKVSFGGGVFVLKLLVK, the amyloid nucleation score came to 0.266 ± 0.3.

Take RMYLGVLIRHWIDSFAFGMQ: the amyloid nucleation score turned out to be 0.193 ± 0.32.

DLLDLIQISDSLKILNALPE: the amyloid nucleation score was 0.845 ± 0.18.

For HNFLSYFQNRNDYCASN, the amyloid nucleation score was -0.503 ± 0.6.

In turn, PTCQGITWMPRQLWLMGGAD registered an amyloid nucleation score of 0.507 ± 0.6.

YRIPLARMWMVTLPL had an amyloid nucleation score of -0.317 ± 0.8.

In turn, FNRNNMKYQYFLKRIYMNW gave an amyloid nucleation score of -0.338 ± 1.4.

In the case of DSEQGRLIYICFRVTTIRAL, the amyloid nucleation score was -0.062 ± 0.36.

Turning to FGVNCNYCLILVQCMC, the amyloid nucleation score amounted to 2.35 ± 0.52.

On to CGDMWLTDSLHGMNCSLFRR, for which the amyloid nucleation score result was “inactive”.

CVGVWVRFLTQQCSTHKQYE: the amyloid nucleation score was -0.116 ± 1.2.

The substance NVSFWFYPLSAFSRPFFGLH gave an amyloid nucleation score of 2.74 ± 0.28.

The substance GTDVQEWLAYCCAIIYAF registered an amyloid nucleation score of 0.332 ± 0.72.

Take WSKCVCHLPR: the amyloid nucleation score is -0.897 ± 1.6.

In turn, SRWTQS gave an amyloid nucleation score of 0.201 ± 0.88.

VPILIVFQQVADASRIRIMR returned an amyloid nucleation score of 4.77 ± 0.059.

In the case of MSNFLTELGNNSTHREDGER, the amyloid nucleation score is 0.501 ± 0.78.

As for GEFTRGDTSKWFLLDK, the amyloid nucleation score came to 0.577 ± 0.56.

For the substance GIIFGMKVGWK, the amyloid nucleation score was determined as 0.385 ± 0.31.

QWCDKVFL yielded an amyloid nucleation score of -0.687 ± 0.4.

Turning to MSAVTGYECFRSLLV, the amyloid nucleation score was -0.055 ± 0.35.

For the substance FFHSAYCFCNNLPMGLDLWS, the amyloid nucleation score turned out to be 5.81 ± 0.083.

For LLAEASLVKETTLCYHSPSL, the amyloid nucleation score came out at 0.04 ± 0.56.

As to SYNGCRRFNRCDRVCRNSNT, the amyloid nucleation score is 2.35 ± 0.095.

Substance NDNLVDNQT had an amyloid nucleation score of 0.23 ± 0.75.

On to WLLNMENYWTVSTAGWSRWN, for which the amyloid nucleation score worked out at 0.332 ± 0.46.

For WGSSLRRTYMFYLDFDGWVN, the amyloid nucleation score is -0.405 ± 1.7.

For KSLFNYCVFSDGL, the amyloid nucleation score was found to be 7.281 ± 0.051.

In the case of VYRNAINSVIHFDGVVWGVG, the amyloid nucleation score entry was “inactive”.

Regarding CRCTVNHVMVRLSRGCRDAH, the amyloid nucleation score entry was “inactive”.

On to RVFKFSPYILKAILEVSNA, for which the amyloid nucleation score amounted to 0.458 ± 0.32.

In the case of GDISYVSASLQLFNWVLSCV, the amyloid nucleation score was determined as 3.97 ± 0.13.

Consider ASGSI, for which the amyloid nucleation score was -1.32 ± 2.4.

Substance ICLMFLSGTIDYYLY had an amyloid nucleation score of 0.111 ± 0.84.

For the substance HVIYRLRGFITSSPFMTLRT, the amyloid nucleation score was 0.577 ± 0.45.

For the substance MVRYKRRSLELFMIARYSCC, the amyloid nucleation score was 0.599 ± 1.2.

VRRGFGPIITLYNFIISIWF: the amyloid nucleation score came to 0.895 ± 0.79.

The substance SRFDGTNIVCSSGMWFCAWK registered an amyloid nucleation score of 8.35 ± 0.045.

In turn, FTFNYIATVSQLPGFGVIHS yielded an amyloid nucleation score of 0.343 ± 0.7.

For the substance YAYEIGFVILQFFNNRVFAL, the amyloid nucleation score entry was “inactive”.

The substance NLFVSYSTDNSSTFMWDSVR registered an amyloid nucleation score of 4.44 ± 0.058.

IIDPDREYTVSN registered an amyloid nucleation score of -0.236 ± 0.95.

The substance ASFGGINLPL showed an amyloid nucleation score of -0.236 ± 0.41.

For RHIYVSVNERLYVEFNYIAG, the amyloid nucleation score amounted to 2.19 ± 0.34.

Regarding ISNFVGTTMIIQGSVNTVYK, the amyloid nucleation score turned out to be 6.962 ± 0.055.

Substance TKTLL registered an amyloid nucleation score of 0.346 ± 0.34.

Take VNDYWNFCYVCWKYQSIILY: the amyloid nucleation score is 3.14 ± 0.18.

The substance AVRHLPAPRHSMCLIWYCNC showed an amyloid nucleation score of 0.156 ± 0.37.

MRENIWPITCSNL had an amyloid nucleation score of 2.28 ± 0.57.

Substance SQTNSIISCLERFAGGLVLI returned an amyloid nucleation score of 0.349 ± 0.55.

RSIFVP: the amyloid nucleation score entry is “inactive”.

LSTVRLFILEPLYGGPPRNG had an amyloid nucleation score of -1.4 ± 1.4.

ASGKYNRLCIGFVWGCEQGM had an amyloid nucleation score of 2.12 ± 0.26.

NGLGFLNGRSSFGVGCYY came in with an amyloid nucleation score of -0.486 ± 0.28.

Turning to SHASSSSSGCAYQSLVIWIN, the amyloid nucleation score is 4.45 ± 0.081.

With REFGLLAWVELLFWATFR, the amyloid nucleation score is -0.676 ± 0.94.

In turn, DYSLKCLTPVVSDRAWCRLN gave an amyloid nucleation score of 0.398 ± 0.83.

As to AVMFVTCLIVSASGHLLYTL, the amyloid nucleation score came out at 1.39 ± 0.88.

HVVKCGHYLRRVRNMGKLEF returned an amyloid nucleation score of -0.163 ± 0.79.

For IFSGSPGLN, the amyloid nucleation score was 5.71 ± 0.076.

For the substance MCSLFVCMSNTSIV, the amyloid nucleation score was found to be 5.406 ± 0.051.

For the substance FTSLWDCALTHVVTFPAILG, the amyloid nucleation score was -1.36 ± 1.8.

Turning to HPLWGPYR, the amyloid nucleation score is 0.518 ± 0.59.

FVIDV: the amyloid nucleation score was -0.568 ± 0.98.

TLMDQSLYIWGSN registered an amyloid nucleation score of -0.274 ± 0.63.

The substance CGKSIEETSLRNPIPGNVLG had an amyloid nucleation score of 0.476 ± 0.55.

SLWTLWGFSFGDT had an amyloid nucleation score of -0.458 ± 0.47.

The substance ITYSLSIYSSRAICLYVWGG had an amyloid nucleation score of -0.119 ± 0.62.

The substance GRLVVIAYQMQSCDSTMD returned an amyloid nucleation score of -0.115 ± 0.42.

Turning to RSSGVSVGYFRAFS, the amyloid nucleation score result is “inactive”.

YRGIEAFCAGTNWTSPKWSR registered an amyloid nucleation score of -0.169 ± 0.3.

With KCIWFMHDFCYMVLMR, the amyloid nucleation score was -0.164 ± 0.72.

In turn, WARESRIHTYVRVMFSGKWG displayed an amyloid nucleation score of 0.517 ± 0.54.

Take IRGCTAC: the amyloid nucleation score was 0.958 ± 0.76.

Turning to ASRVQGMYYHVHQPLKQLWV, the amyloid nucleation score result was “inactive”.

RGICWWLNIHWGKAMDMLGP: the amyloid nucleation score amounted to 0.428 ± 0.97.

Consider WLCTMLYVVVIRGCNVGNLE, for which the amyloid nucleation score is -0.393 ± 0.65.

AGDTGFTHTYSCWIKQWFVF had an amyloid nucleation score of 0.705 ± 0.47.

As to GTGLSENRLSKYCWALLWSY, the amyloid nucleation score result was “inactive”.

As for GRSFGQSGRISRAGNVGIIC, the amyloid nucleation score was -0.266 ± 0.38.

LKWGMVLGAYIHEFGCNM displayed an amyloid nucleation score of 0.804 ± 0.61.

The substance CVGSIKVNSLSRLFCHLLCV yielded an amyloid nucleation score of -0.187 ± 1.2.

For ANDMMRKDCTFDTSVFMESV, the amyloid nucleation score was -0.379 ± 0.26.

As for GFYSLHTALARIPHEHAVFF, the amyloid nucleation score was -0.018 ± 0.61.

The substance TLLYICSRNTKFNGLMWLGL came in with an amyloid nucleation score of 0.935 ± 0.21.

HVHVTACCRLM displayed an amyloid nucleation score of 7.44 ± 0.077.

With LWDLKIAGRLNLEGCRCGLW, the amyloid nucleation score turned out to be 2.1 ± 0.13.

Take LACSVAA: the amyloid nucleation score was -0.493 ± 0.34.

For YSCGSIPYIRLVLKLIGYVI, the amyloid nucleation score is -0.016 ± 0.39.

Substance ELKSAFCWRARLG registered an amyloid nucleation score of 0.197 ± 0.49.

Take ICYSGHERYWLNLGICEGDS: the amyloid nucleation score worked out at 0.186 ± 0.32.

With DEFSFDSSLLMLFGAGYGV, the amyloid nucleation score was 0.932 ± 0.62.

Substance SKSLFIIGTVPDRS registered an amyloid nucleation score of -0.467 ± 0.52.

Substance DGFMCFLYKLASQT gave an amyloid nucleation score of 0.158 ± 0.78.

The substance PIRPWAHYGMANWVQKAF gave an amyloid nucleation score of -0.763 ± 0.52.

The substance HCSFSWGYRWLGWTTKSGNM displayed an amyloid nucleation score of 1.31 ± 0.4.

For LWNIIVSIKGRIVESLAPTY, the amyloid nucleation score is -0.113 ± 0.51.

VFNVV: the amyloid nucleation score is -0.605 ± 0.52.

With GVWYCYLGVN, the amyloid nucleation score was -0.431 ± 1.4.

In the case of FWISRYVLQKDWKGWICTEL, the amyloid nucleation score was -0.338 ± 0.83.
